# Test results as given in patent US20230218739A1.
# Where “and” joins values, the source holds several entries; their conditions need not be identical. Identical values can stand only once. Like-named read-outs stand apart in the source and are kept apart here.
# Key:
# [1] = target: Influenza HA-Trimer (exemplary fusion protein comprising HA (Influenza A virus A/California/07/2009-pdm (H1N1))); test: biolayer interferometry (Octet), […]
# [2] = target: recombinant HA produced from insect cells; test: ForteBio Octet molecular interaction analysis
# [3] = target: Rabies G-Trimer (CTN-1 Strain) (ectodomain of rabies CTN-1 strain G protein fused in frame to Trimer-Tag) (Rabies virus CTN-1 strain)
# [4] = target: Rabies G-Trimer (CTN-1 Strain) (ectodomain of rabies CTN-1 strain G protein fused in frame to Trimer-Tag) (Rabies virus CTN-1 strain); remark: listed apart in the source
# [5] = target: Rabies G-Trimer (CTN-1 Strain) (ectodomain of rabies CTN-1 strain G protein fused in frame to Trimer-Tag) (Rabies virus CTN-1 strain); remark: listed apart in the source
Substance,Kd [1] [nM],Kd [2] [nM],p75 Competitive titer IC50 GMT [3],CTN-1 Specific IgG titer (End point) [4],p75 Competitive titer IC50 GMT [5]
"CR6261 (broadly neutralizing anti-HA antibody, ACRO Biosystems)",< 0.001,3.8,–,–,–
HDCV,–,–,87,57 and 33,30 and 25
